The labels stand for the following.
B1: variant CD80 IgV-Fc (inert) H18Y/A26P/E35D/M47Y/V68I/A71G/D90G (Fc fusion)
chain: VIHVTKEVKEVATLSCGYNVSVEELPQTRIYWQKDKKMVLTMMSGDYNIWPEYKNRTIFDITNNLSIIILGLRPSDEGTYECVVLKYEKGAFKREHLAEVTLSVKAD
B2: variant CD80 IgV-Fc (inert) H18F/A26D/E35D/D46E/M47T/V68M/A71G/D90G (Fc fusion)
chain: B1 chain with Y18F, P26D, D46E, Y47T, I68M
B3: variant CD80 IgV-Fc (inert) H18Y/E35D/M47V/V68L/A71G/D90G (Fc fusion)
chain: B1 chain with P26A, Y47V, I68L
B4: variant CD80 IgV-Fc (inert) H18V/A26K/E35D/M47L/V68M/A71G (Fc fusion)
chain: B1 chain with Y18V, P26K, Y47L, I68M, G90D
B5: variant CD80 IgV-Fc (inert) H18T/A26N/E35D/M47L/V68M/A71G (Fc fusion)
chain: B1 chain with Y18T, P26N, Y47L, I68M, G90D
B6: variant CD80 IgV-Fc (inert) H18C/A26P/E35D/M47L/V68M/A71G (Fc fusion)
chain: B1 chain with Y18C, Y47L, I68M, G90D
B7: variant CD80 IgV-Fc (inert) H18F/A26N/E35D/M47V/V68M/A71G/D90K (Fc fusion)
chain: B1 chain with Y18F, P26N, Y47V, I68M, G90K
B8: variant CD80 IgV-Fc (inert) H18I/A26P/E35D/M47V/V68M/A71G (Fc fusion)
chain: B1 chain with Y18I, Y47V, I68M, G90D
B9: variant CD80 IgV-Fc (inert) H18Y/E35D/M47V/V68M/A71G (Fc fusion)
chain: B1 chain with P26A, Y47V, I68M, G90D
B10: variant CD80 IgV-Fc (inert) H18Y/A26P/E35D/M47I/V68M/A71G (Fc fusion)
chain: B1 chain with Y47I, I68M, G90D
B11: variant CD80 IgV-Fc (inert) H18F/A26P/E35D/M47I/V68M/A71G/D90G (Fc fusion)
chain: B1 chain with Y18F, Y47I, I68M
B12: variant CD80 IgV-Fc (inert) H18V/A26D/E35D/M47V/V68M/A71G/D90G (Fc fusion)
chain: B1 chain with Y18V, P26D, Y47V, I68M
B13: variant CD80 IgV-Fc (inert) H18V/A26Q/E35D/M47V/V68L/A71G/D90G (Fc fusion)
chain: B1 chain with Y18V, P26Q, Y47V, I68L
B14: variant CD80 IgV-Fc (inert) H18V/E35D/M47V/V68M/A71G/D90G (Fc fusion)
chain: B1 chain with Y18V, P26A, Y47V, I68M
B15: CD80 K36G/K37Q/M38I/L40M ECD-Fc (Fc fusion)
chain: VIHVTKEVKEVATLSCGHNVSVEELAQTRIYWQKEGQIVMTMMSGDMNIWPEYKNRTIFDITNNLSIVILALRPSDEGTYECVVLKYEKDAFKREHLAEVTLSVKADFPTPSISDFEIPTSNIRRIICSTSGGFPEPHLSWLENGEELNAINTTVSQDPETELYAVSSKLDFNMTTNHSFMCLIKYGHLRVNQTFNWNTTKQEHFPDN
B16: variant CD80 IgV-Fc M47L (Fc fusion)
chain: B1 chain with Y18H, P26A, D35E, Y47L, I68V, G71A, G90D
B17: variant CD80 IgV-Fc D46V/M47L/V68M (Fc fusion)
chain: B1 chain with Y18H, P26A, D35E, D46V, Y47L, I68M, G71A, G90D
B18: variant CD80 IgV-Fc D46V/L85Q (Fc fusion)
chain: B1 chain with Y18H, P26A, D35E, D46V, Y47M, I68V, G71A, L85Q, G90D
B19: variant CD80 IgV-Fc E35D/M47L/V68M (Fc fusion)
chain: B1 chain with Y18H, P26A, Y47L, I68M, G71A, G90D
B20: variant CD80 IgV-Fc E35D/V68M/L85Q (Fc fusion)
chain: B1 chain with Y18H, P26A, Y47M, I68M, G71A, L85Q, G90D

Changes are numbered by the printed parent chain. Numbers in names are those of the source.

The target of one assay is human CTLA-4 (human) (UniProt P16410). Briefly: flow cytometry, CHO/CTLA4 cells; MFI over CD80 WT IgV-Fc. (A flow cytometer gives signals particle by particle.)
human CTLA-4 (human), sequence (P16410 36-223): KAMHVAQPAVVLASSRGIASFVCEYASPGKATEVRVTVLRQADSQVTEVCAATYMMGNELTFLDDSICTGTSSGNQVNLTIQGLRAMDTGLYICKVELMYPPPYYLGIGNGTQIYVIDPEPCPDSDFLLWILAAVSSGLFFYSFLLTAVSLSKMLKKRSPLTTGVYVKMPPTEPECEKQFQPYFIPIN
Turning to B1, the Fold change to WT CD80 came out at 6 fold.
Still for that read-out and setting: for B2 the value was 12.4 fold; for B3, 11.9 fold.
B4 showed a Fold change to WT CD80 of 16.6 fold.
As for B5, the Fold change to WT CD80 was 15.1 fold.
Same read-out and setting: for B6 the value was 16.9 fold; for B7, 11 fold; for B8, 15.8 fold.
In turn, B9 yielded a Fold change to WT CD80 of 17.1 fold.
On the same count and under the same terms, for B10 the value was 8.8 fold.
Still for that read-out and setting: as for B11, the figure is 17.3 fold.
Consider B12, for which the Fold change to WT CD80 came out at 16 fold.
Same read-out and setting: as for B13, the figure is 12.8 fold.
The same measure, in the same setting: for B14 the value was 12.1 fold.

For another assay, the target named is human PD-L1 (human) (UniProt Q9NZQ7). Briefly: flow cytometry, CHO/PD-L1 cells; MFI over CD80 WT IgV-Fc.
human PD-L1 (human), sequence (Q9NZQ7 19-290): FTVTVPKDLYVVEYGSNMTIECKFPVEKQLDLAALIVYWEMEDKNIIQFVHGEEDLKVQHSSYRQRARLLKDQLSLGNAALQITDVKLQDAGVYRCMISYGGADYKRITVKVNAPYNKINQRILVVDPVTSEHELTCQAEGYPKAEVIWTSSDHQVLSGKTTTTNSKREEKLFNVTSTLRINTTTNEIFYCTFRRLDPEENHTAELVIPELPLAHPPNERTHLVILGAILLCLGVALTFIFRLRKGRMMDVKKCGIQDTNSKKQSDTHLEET
As for B1, the Fold change to WT CD80 is 165 fold.
Still for that read-out and setting: as for B2, the figure is 167 fold.
On to B3, for which the Fold change to WT CD80 came to 290 fold.
The same measure, in the same setting: for B4 the value was 408 fold; for B5, 415 fold; for B6, 406 fold.
On the same count and under the same terms, as for B7, the figure is 136 fold.
The molecule B8 displayed a Fold change to WT CD80 of 393 fold.
Still for that read-out and setting: as for B9, the figure is 393 fold; as for B10, 330 fold; as for B11, 196 fold.
The same measure, in the same setting: for B12 the value was 409 fold; for B13, 204 fold.
On the same count and under the same terms, for B14 the value was 264 fold.

The target of the next assay is human CTLA-4 (human) (UniProt P16410). Briefly: flow cytometry, CHO cells stably expressing CTLA4.
The molecule B1 gave an MFI at 33.3 nM of 8280 MFI.
The same measure, in the same setting: for B2 the value was 17200 MFI; for B3, 16500 MFI; for B4, 22900 MFI.
As for B5, the MFI at 33.3 nM was 20900 MFI.
B6: the MFI at 33.3 nM came out at 23400 MFI.
Still for that read-out and setting: as for B7, the figure is 15200 MFI; as for B8, 21900 MFI.
The same measure, in the same setting: as for B9, the figure is 23600 MFI; as for B10, 12200 MFI.
Same read-out and setting: as for B11, the figure is 23900 MFI; as for B12, 22100 MFI; as for B13, 17700 MFI.
The molecule B14 displayed an MFI at 33.3 nM of 16800 MFI.

For the next assay the target is unchanged. Briefly: flow cytometry, Expi293F cells transfected with CTLA-4.
Regarding B15, the MFI was determined as 1400 MFI and the parental ratio came out at 0.03.

Another assay deals with CD28 (human) (UniProt P10747). Briefly: flow cytometry, Jurkat/IL2 reporter cells (CD28).
On to B16, for which the MFI at 33.3 nM is 309 MFI.
B17 came in with an MFI at 33.3 nM of 2180 MFI.
The same measure, in the same setting: as for B18, the figure is 131 MFI; as for B19, 1240 MFI.
With B20, the MFI at 33.3 nM was determined as 76.2 MFI.

The next assay concerns the target CD28 (human) (UniProt P10747). Briefly: flow cytometry, Jurkat cells (CD28); vs WT CD80 ECD-Fc (Abcam).
For B16, the Fold change to WT CD80 amounted to 0.4 fold.
The same measure, in the same setting: as for B17, the figure is 3.1 fold; as for B18, 0.2 fold; as for B19, 1.8 fold.
Same read-out and setting: for B20 the value was 0.1 fold.

The next assay has as its target human PD-L1 (human) (UniProt Q9NZQ7). Briefly: flow cytometry, CHO cells stably expressing PD-L1.
Turning to B1, the MFI at 33.3 nM worked out at 27300 MFI.
On the same count and under the same terms, for B2 the value was 27500 MFI; for B3, 47900 MFI.
On the same count and under the same terms, for B4 the value was 67300 MFI; for B5, 68500 MFI.
B6: the MFI at 33.3 nM was determined as 67000 MFI.
B7 returned an MFI at 33.3 nM of 22400 MFI.
Turning to B8, the MFI at 33.3 nM was found to be 64900 MFI.
In the case of B9, the MFI at 33.3 nM is 64900 MFI.
Same read-out and setting: for B10 the value was 54500 MFI.
As for B11, the MFI at 33.3 nM turned out to be 32300 MFI.
The same measure, in the same setting: for B12 the value was 67500 MFI; for B13, 33600 MFI; for B14, 43600 MFI.

For a further assay, the target named is CD28 (human) (UniProt P10747). Briefly: flow cytometry, Expi293F cells transfected with CD28.
With B15, the MFI is 1170 MFI and the parental ratio is 0.09.

The target of a further assay is human PD-L1 (human) (UniProt Q9NZQ7). Briefly: flow cytometry, CHO cells expressing huPD-L1.
As for B16, the MFI at 33.3 nM is 1900 MFI.
For B17, the MFI at 33.3 nM was 28000 MFI.
On to B18, for which the MFI at 33.3 nM came out at 2200 MFI.
In turn, B19 registered an MFI at 33.3 nM of 27900 MFI.
For the molecule B20, the MFI at 33.3 nM was determined as 5970 MFI.

For the next assay the target is unchanged. Briefly: flow cytometry, Expi293F cells transfected with PD-L1.
On to B15, for which the MFI stood at 959 MFI and the parental ratio worked out at 0.05.

In another assay the target is CD28 (human) (UniProt P10747). Briefly: flow cytometry, Jurkat cells (CD28).
Molecule B1 showed an MFI at 33.3 nM of 1820 MFI.
Same read-out and setting: for B2 the value was 6030 MFI; for B3, 2550 MFI; for B4, 3640 MFI.
The molecule B5 displayed an MFI at 33.3 nM of 1370 MFI.
For the molecule B6, the MFI at 33.3 nM turned out to be 1910 MFI.
Same read-out and setting: for B7 the value was 3170 MFI; for B8, 2570 MFI; for B9, 3230 MFI.
The same measure, in the same setting: for B10 the value was 5120 MFI; for B11, 4800 MFI; for B12, 6250 MFI.
Still for that read-out and setting: for B13 the value was 3130 MFI.
Regarding B14, the MFI at 33.3 nM came out at 2120 MFI.

In a further assay the target is human PD-L1 (human) (UniProt Q9NZQ7). Briefly: flow cytometry; PD-L1 MFI over CD28 MFI of the same protein.
As to B16, the Ratio of PDL1:CD28 came to 6.1.
Still for that read-out and setting: for B17 the value was 12.8; for B18, 16.8.
Same read-out and setting: for B19 the value was 22.4; for B20, 78.4.

The next assay addresses human CTLA-4 (human) (UniProt P16410). Briefly: flow cytometry, CHO cells expressing huCTLA-4.
Molecule B16 displayed an MFI at 33.3 nM of 30800 MFI.
Same read-out and setting: as for B17, the figure is 34700 MFI; as for B18, 41900 MFI; as for B19, 28600 MFI.
Same read-out and setting: for B20 the value was 42800 MFI.

A further assay concerns the target CD28 (human) (UniProt P10747). Briefly: flow cytometry, Jurkat cells (CD28); MFI over CD80 WT IgV-Fc.
Molecule B1 returned a Fold change to WT CD80 of 17.8 fold.
Still for that read-out and setting: as for B2, the figure is 59.1 fold; as for B3, 25 fold; as for B4, 35.7 fold.
Consider B5, for which the Fold change to WT CD80 amounted to 13.4 fold.
Still for that read-out and setting: as for B6, the figure is 18.7 fold.
For B7, the Fold change to WT CD80 amounted to 31.1 fold.
On the same count and under the same terms, for B8 the value was 25.2 fold; for B9, 31.6 fold.
The same measure, in the same setting: for B10 the value was 50.2 fold; for B11, 47.1 fold.
The same measure, in the same setting: as for B12, the figure is 61.3 fold.
In turn, B13 yielded a Fold change to WT CD80 of 30.6 fold.
Same read-out and setting: as for B14, the figure is 20.7 fold.

Another assay addresses human CTLA-4 (human) (UniProt P16410). Briefly: flow cytometry, CHO/huCTLA-4 cells; vs WT CD80 ECD-Fc (Abcam).
Take B16: the Fold change to WT CD80 was 0.8 fold.
On the same count and under the same terms, as for B17, the figure is 0.9 fold; as for B18, 1 fold.
The same measure, in the same setting: as for B19, the figure is 0.7 fold; as for B20, 1.1 fold.

The next assay concerns the target human PD-L1 (human) (UniProt Q9NZQ7). Briefly: flow cytometry, CHO/huPD-L1 cells; vs WT CD80 ECD-Fc (Abcam).
The molecule B16 returned a Fold change to WT CD80 of 14.8 fold.
On the same count and under the same terms, as for B17, the figure is 219 fold.
Same read-out and setting: for B18 the value was 17.2 fold; for B19, 218 fold.
On the same count and under the same terms, for B20 the value was 46.6 fold.

The values are drawn from patent publication US20220177587A1, “METHODS AND USES OF VARIANT CD80 FUSION PROTEINS AND RELATED CONSTRUCTS” (Alpine Immune Sciences, Inc., priority 2018, published 2022).
